Measured values: the nanobody polyreactivity screen of Harvey et al. (2022)

Assay: yeast display, Sf9 membrane polyspecificity reagent, FACS + sequencing; frameworks hold sequencing errors
Summary of the method: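 Using colony PCR, genes from sorted yeast display clones were amplified, then sequenced on MiSeq at 2 × 250 and filtered by CDR length. The clones had been stained with 10% biotinylated, detergent-solubilized Sf9 membrane reagent for 1 hour at 4 °C and sorted by FACS into low and high (top ~1%) gates on anti-HA and streptavidin fluorescence. Polyreactivity labels come from the gate of origin.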

| Sequence | polyreactivity (PSR sort gate) |
| --- | --- |
| QVQLVESGVGLVQAGGSLRLSCAASGSIFHINAMGWSRQAPGKERELEADISQRGGSTYYADSVKGRFTISRDNAKNTVYLQMNSLKPEDTAVYFCAVVHVFYAVSYFSFYTYDYWGQGTQVTLSS | low polyreactivity |
| QVQLVESGGGLFQAGGSLRLSCAASGFTFPDYAMGSYRQAPGKERELVAAISSDGSTYDADSVKGRFTISRDIAKTTVYLQMNSLKPEDTAVYYCAAYVVWLYGYAYWGQGTQVTVSS | low polyreactivity |
| QVQLQESGGGLAQAVGSLRLSCAASGNIFDPDIMGSYRQAPAKERELVGSITHGGSTNYVDSVKGRFTISRDNATNTVHLQMNRLKPVDTGVYYCAAIGYPDIPSYFDYDSDFFNWGHGTQVTVSS | high polyreactivity |
| QVQLVESGGALVQAGGSLRLSCAASGRTFGVYAMGWYRQAPGKERELVAAISRRAGNTYYADSVKGRFTISRDNAKNTVYLQMNSLKTEDTAVYYCAADFSRQYGYWGQGTQVTVSS | high polyreactivity |
| QVQLVESGGGLVQAGGSLRLSCAASGRTFYFYAMGWYRQAPGKERELVADIRGITGSTYYADSVKGRFTISRDNAKNTVYLQMNSLKPEDTAVYYCAADQYLGRAWRGRGYYWGQGTQVTVSS | high polyreactivity |
| QVQLVESGGGLVQAGGSRRLICAASGRIYYYMGWYRQEPGQERELVAASTSSGVSTYYADSVKGRFTISRDNAKNTVDLQMNSLKPEDTAVYYCAAERVYIFWFTHEIFKYWGQGTQVTVSS | high polyreactivity |
| QVQLVESVGGLLQAGGSLRLSCADSGSTFTTNVMGWYRQAPGKERELVAAISKRGGSTFYADSVKGRFTISRDNAKNTVYRQMNSLKPEDTAVYYCKALRRGVRDPYGYWGQGTQVTVSS | high polyreactivity |
| QVQLVESGGGLVQAGGSLRLSCAASGFTFIKYAMGWYRQAPGKEREFVAAITRSGTSTYYADSVKGRFTISRDNAKNTVYLQMNSLKPEDTAVYYCAARYVYNSDRVSERDYWGQGTQVTVSS | high polyreactivity |
| QVQLVESGGGLVQAGGSLRLSCAASGRTFPSYVMGWYRQAPGKERELVAAITATGASTYYADSVKGRFTISRDNAKNTVYLQMNSQKPEDTAVYYCAASRYGLYENGYEYYWGQVTQVTVSS | low polyreactivity |
| QVQLVESGGGLVQAGGSLRLSCAASGFTFYGYVMGWYRQAPGKERDLVAVISRSGDRTYYADSVKGRFTISRDNAKNTVYFQMNSLKPEDTAVYYCAARVYLLGWWTGNGYWGQGTQVTVSS | high polyreactivity |
| QVQLVESGGGLVQAGGSLRLSCAASGFIFFNYAMGWYRQAPGKERELVAVIDRSGGTTYYADSVKGRFTISRDNAKNTVYLQMNSLKPEDTAVYYCNADDFTYPSGWGFIYDYWGQGTQVTVSS | low polyreactivity |
| QVQLVESGGGLFQEGGSLRISCAPSGSTFGGYVMGWYRQAPGKDRELVAAIRRVGRTYYADSVKGRFTISRDNAKNTVYLQINSLKAEVTAVYYFAADWAGWEGYRMDYWGQGTQVTVSS | low polyreactivity |
| QVQLVESGGGLVQAGGSLRLSCAASGNIFLYYTMGWYRQAPGKERELVAGITSGGSTYYADSVKGRFTISRDNAKNTVSLQMNSLKPEDTAVYYCAATYYPNFYRYYYWGQGTQVTVSS | low polyreactivity |
| QVQRVESGGGLVQAGGSLRLSCAASGSIFPSNTMGWYRQAPGKERELVAAISGSGTRTYYADSVKGRFTISRDNAKNTVYLQMNSLKPEDTAVYYCAADVDYWGQGTQVTVSS | low polyreactivity |
| QVQLVESGGGLVQAGGSLRLSCAASGFTLYYYAMGWYRQAPGKERELVAAISYSGGTTYYADSVKGRFTISRDNAKYTVSLQMNSLKPEDTAVYYCAAEVGGYWADEYLGYDYWGQGTQVTVSS | low polyreactivity |
| QVQLVESGGGLDQAGGSLRLSCAASGSIFKYYVIGCYRQAPAKERELLAAISSGGSTYYADSVKGRFTISRDNAKNTVSLQLNSLKPEDTAVYFCAAKKAKSYYVSRYPRYYYWGQGTQVTVSS | low polyreactivity |
| QVQLVESGGGLVQAGGSLRLSCAASGSIFLYYAMGWYRQAPGKERELVAGIRRGGRTNYADSVKGRFTIPRDNAKNTVYLQMNSLKPEDTAVYYCAKGGYWGQGTQVTVSS | high polyreactivity |
| QVQLVESGGGLVQAGGSLRLSCAASGFIFLGYAMGWYRQAPGKERELVAAISSDSDTNYADSVKGRFTISRDNAKNTVFLQMNSLKPEDTAVYYCNADIDSYREMDYWGQGTLVTVSS | low polyreactivity |
| QVQLVESGGGLLQAGGSLRLSCAASVSIFDSYAMGWYREAPGKERELVAVISESGGTTYNADSVKGRFTISRDNAKNTVYLQMNSLKPEDTAVYYCAAVWYFQFGVWGYYWGQGTQVTVSS | low polyreactivity |
| QDQLVESGGGLVQAGGSLRLSCAASGRIFAPNAMGWYRQAPGKERELVAAITYSGTSTYADSVKGRFTISRDNAKNTVYLQMNSLKPEDTAVYYCAAEGSGVYYHSYDYWGQGTQVTVSS | low polyreactivity |
| QVQLVESGGGLVQAGGSIRLSCDHSGRNLYRNSMGWYRQAPEKERELVARITSSGASTYYADSVKGRFTISRDNAKNTVTIQMNSLKQEYTAVYYCAAQYLSRRYGPYYTYNYRGQGTQVTVSS | high polyreactivity |
| QVQLVESGGGLVQAGGSLRLTCDASGITFRLYAMGWSRQAPGKETELVARITDRGSTYYADSVKGRFTISRDNAKNTVYLQMNSLKPEDTAVYYCAARGYRGLVQLRYGYWGQGTQVTVSS | high polyreactivity |

| Sequence | polyreactivity (PSR sort gate) |
| --- | --- |
| QVQLVESGGGLVQAGGSLRLSCAASGSIFYPYAMGCYRQAPGKERELVAAITSSGGSTYYADSVKGRFTISRDNAKNTVYLQMNSLKPEDTAVYYCNAKGPYTAIYYKPFLGSTRFEYWGQGTQVTVSS | high polyreactivity |
| QVQLVESGGGLVQAGGSLRLSCAASGFTFRWNAMGWYRQAPGKERELVAAITNDDSTYYADSVKGRFTISRDNAKNTVYLQMNSLKPEDTAVYYCNARYGRYLDLDTGVALAGRGYWGQGTQVSVSS | low polyreactivity |
| QVQLVESGGGFVQAGGSLRLSCAASGFIFTKYAMGWYRQAPGKERELVAAIRGSGGSTYYADSVKGRVTISRDNAKNTVYLQMNSLKPEDTAVYYCAAERSLGYDYWGQGTQVTVSS | high polyreactivity |
| QVQLVESGGGLVQAGGSLRLSCAASGRTFLDNAMGWYRQAPGKERELVAAISYSGGSTYYADSVKGRFTISRDNAKNTVYLQMNSLKPEDTAVYYCAADPRQYDYYLLAYDYWGQGTQVTVSS | low polyreactivity |
| QVPLVESGGGLVQAGGSLRLSCSASGIIFNAYTMGWYRQAPGKESELVAAITTAGSTHYADSVKGRFTISRDNAKNTVYLQMNSLKPEDTAVYYCNADTPVGKYAHLACYQDYDDWGQGTQVTVSS | low polyreactivity |
| QVQLVESGGGLVQAGGSLRLSCAASGITFYDYAMGWYRQAPGKERELVAAISGGGITYYADSVKGRFTISRDNAKNTVYLQMNSLKPEDTAVYYCAADAYGYGGDSWGQGTQVTVSS | low polyreactivity |
| QVQLVESGGGLVQAGGSLLLSCAASGSTFGSYDMGWYRQAPGKERELVATISTSGSGTYYADSVKGRFTISRDNSKNTVYLQMNSLKPEDTAFYDCAKDPADGRRFRYGYWGQGTQVTVSS | low polyreactivity |
| QVQLVESGGGLVQAGGSLRLSCAASGSIFGYNTMGWYREAPGKERELVAAISYRGGSTYADSVKGRFTISRDNAKNTVYLQLNSLKPEDTAVYYSAATSYTATWRYYYWGQGTQVTVSS | high polyreactivity |
| QVQLVESGGGLVQAGGSLRLSCAASGFTFATYAMGWYRQAPGKERELVAAITSGDRTKYADSVKGRFTISRDNAKNTVYLQMNSLKPEDTAVYYCAATTYKVSTGYGYWGQGTQVTVSS | high polyreactivity |
| QVQLVESGGGLVQAGGSLRLSCAASGRTFFKYAMGWYRQAPGKERELVAAIRSGTSTYYADSVKGRFTISRDNAKNTVYLHMNSLKPEDTAVYYCAADWHSKIGKGYDYWGQGTQVTVSS | high polyreactivity |
| QVQLVESGGGLVQAGGSLRLSCAASGITLYRYAMGWYRLAPGKERELVADISSGGGTTYYADSVKGRFTISRDNAKNTVYLQMNSLKPEDTAVYYCAADYGFRYPLYEFWGQGTQVTVSS | low polyreactivity |
| QVQLVESGGGLVQAGGSLRLSCAASGSIFRLNTKGGYRQAPGKERELVAAISNGGRTYYADSVTGRFTISRDNAKNTVYLQMNSLKPEDTAVYYCNVRYGRSKIYGYWGQGTQVTVSS | high polyreactivity |
| QVQLVESGGGLVQAGGSLRLSCAASGSTFSYNAMGWYRQAPGKERELVAAITSSGSSTYYADSVKGRFTISRYNAKNTVYLQMNSLKPEDTAVYYCNAEVLFVAGQVQRNSGDYWGQGTQVTVSS | low polyreactivity |
| QVQLVESGGGLVQAGGSLRISCAASGRICAYNAMGWYRQAPGKERELVAAITWSGGTTYYADSVKGRCTISRDNAKNSVYFQRNSLKPEVTAVYYCAATVGAASRYYYWAQGTQVTVSS | high polyreactivity |
| QVQLVESAGGLVQAGGSLRLSCAASGLTFTGNAIGWYRQAPGKERQCVAAIRWSAGSTYYADSVKGRVTISRDNAKNTVYLQMNSLKPEDTAVYYCNAALNVSGHYPNDYWGQGTQVTVSS | low polyreactivity |
| QVQLVESGGGLVQAGGSLRLSCAASGSTFYGYAMGWYRQAPGKERELVAAITRSGGSTYYADSVKGRFTISRDNAKNTVYLQMNSLIPEDTEVYYCNKDGYKGGVGYDYWGQGTQVTVSS | high polyreactivity |
| QVQLVESGAGLVQAGGSLRLSCAASGSIFGSYAMGRDRQAPGKERELVAGITYRGSSTYYAESVKGRFTISRDNAKNTVYLQMNSLKPEATAVYYCAADPVFDEYDYWGQGTQVTVSS | low polyreactivity |
| QDQLVESGGGLVQAGGSLRLSCAASGRTFRVYAMGWYRQAPGKERELVATITSSGGSTYYADSVKGRFTISRDNAKNTVYLQMNCLKPEDTAVYYCAADGGSASIHDYWGQGTQVTVSS | low polyreactivity |
| QVQLVETGGGLVQAGGSLRLSCAASGRIFRTNAMGWYRQAPGKEREFVAAISKDGGRTYYADSVKGRFTISRDNAKNTVYLQMNSLKPEDTAVYYCNARHRYYRYGYWGQGTQVTVSS | high polyreactivity |
| QVHLVESGGGLVQAGGSLRLSCAASGSTFWKYVMGWYILAPGKERELVAAITSRGGSTYADSVKGRFTISRDNAKNTVYLQMNSLKTEDTAVYYCAATKFWYYGYDYWGQGTQVTVSS | low polyreactivity |
| QVQLVESGGGLVQAGGSLRLSCAASGFILDTYAMGWYRQAPGKERELVAAISASGSSTYYADSVKGRFTISRDNAKNTVYLQMNSLKPEDTAVYYCAAKDTGYGYGFPRLDYWGQGTQVTVSS | low polyreactivity |
